# Measured values from patent publication US20220017605A1 (ICAHN SCHOOL OF MEDICINE AT MOUNT SINAI, published 2022).
# Values joined by “and” are separate entries in the source; they are usually repeats but may differ in a detail not shown here. Identical values can stand only once.
# B1: human monoclonal antibody AA12 (antibody, V domains shown)
# VH: EVQLVESGGGLIQPGGSLRLSCAASGFTVSSNYMSWVRQAPGKGLEWVSVIYSGGSTYYADSVKGRFTISRDNSKNTLYLQMNSLRAEDTAVYYCARDRRGFDYWGQGTMVTVSS
# VL: DIQMTQSPLSLSASVGDRVTITCRTSQSISSYLNWYQQKPGKAPKLLIYAASSLQSGVPSRFSGSGSGTDFTLTISSLQPEDFATYYCQQTYSTPLTFGGGTKVEIK
# Tests used:
# [1] = target: recombinant NS1 protein of Zika virus MR766 (Rhesus/1947/Uganda) with C-terminal hexahistidine tag (Zika virus MR766, UniProt Q32ZE1 791-1142)
# [2] = target: recombinant NS1 protein of Zika virus PRVABC59 (2015/Puerto Rico) with C-terminal hexahistidine tag (Example … (Zika virus PRVABC59, UniProt A0A024B7W1 795-1146))
# Sequence of recombinant NS1 protein of Zika virus PRVABC59 (2015/Puerto Rico) with C-terminal hexahistidine tag (Example … (A0A024B7W1 795-1146, tags left off): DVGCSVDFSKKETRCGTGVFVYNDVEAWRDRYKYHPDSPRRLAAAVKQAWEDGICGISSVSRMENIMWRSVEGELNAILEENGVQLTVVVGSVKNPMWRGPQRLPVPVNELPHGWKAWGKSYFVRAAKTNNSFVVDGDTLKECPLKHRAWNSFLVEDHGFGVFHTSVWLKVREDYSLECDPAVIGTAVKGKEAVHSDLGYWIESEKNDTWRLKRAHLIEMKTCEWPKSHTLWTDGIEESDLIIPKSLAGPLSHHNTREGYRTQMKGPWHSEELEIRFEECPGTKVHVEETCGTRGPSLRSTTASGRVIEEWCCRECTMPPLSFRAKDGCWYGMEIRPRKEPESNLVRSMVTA
# Sequence of recombinant NS1 protein of Zika virus MR766 (Rhesus/1947/Uganda) with C-terminal hexahistidine tag (Q32ZE1 791-1142, tags left off): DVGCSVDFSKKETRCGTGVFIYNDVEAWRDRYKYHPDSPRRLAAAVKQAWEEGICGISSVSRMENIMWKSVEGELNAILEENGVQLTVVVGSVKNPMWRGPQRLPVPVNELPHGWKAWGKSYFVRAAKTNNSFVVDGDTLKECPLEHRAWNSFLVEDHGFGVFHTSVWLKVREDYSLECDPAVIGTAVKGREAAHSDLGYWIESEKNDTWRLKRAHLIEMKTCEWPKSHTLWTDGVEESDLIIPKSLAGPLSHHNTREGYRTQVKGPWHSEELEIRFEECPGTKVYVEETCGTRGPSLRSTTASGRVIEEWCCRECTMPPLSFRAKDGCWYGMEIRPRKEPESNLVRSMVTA
binder,measurement,setting,value
B1,Kd,[1],55.4 nM and 99.8 nM
same,Kd,[2],147 nM and 76.1 nM
